Changes are numbered by the printed parent chain. Ends that are not written are not given here.
T1: human hippocampal Y5 receptor (human)
T1 chain: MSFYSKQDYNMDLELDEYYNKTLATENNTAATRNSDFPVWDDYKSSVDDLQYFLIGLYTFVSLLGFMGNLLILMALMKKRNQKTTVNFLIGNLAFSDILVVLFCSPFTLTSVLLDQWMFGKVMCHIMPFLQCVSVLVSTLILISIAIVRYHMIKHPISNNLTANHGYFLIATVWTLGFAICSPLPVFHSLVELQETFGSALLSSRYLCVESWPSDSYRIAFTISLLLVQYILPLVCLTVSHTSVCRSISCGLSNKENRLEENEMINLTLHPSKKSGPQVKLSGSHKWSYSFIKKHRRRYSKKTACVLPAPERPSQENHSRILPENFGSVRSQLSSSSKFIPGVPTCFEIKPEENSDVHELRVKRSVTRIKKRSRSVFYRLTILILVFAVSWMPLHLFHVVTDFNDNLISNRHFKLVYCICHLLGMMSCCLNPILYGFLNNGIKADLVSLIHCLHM

T2: human Y2 receptor (human, UniProt P49146)
T2 sequence: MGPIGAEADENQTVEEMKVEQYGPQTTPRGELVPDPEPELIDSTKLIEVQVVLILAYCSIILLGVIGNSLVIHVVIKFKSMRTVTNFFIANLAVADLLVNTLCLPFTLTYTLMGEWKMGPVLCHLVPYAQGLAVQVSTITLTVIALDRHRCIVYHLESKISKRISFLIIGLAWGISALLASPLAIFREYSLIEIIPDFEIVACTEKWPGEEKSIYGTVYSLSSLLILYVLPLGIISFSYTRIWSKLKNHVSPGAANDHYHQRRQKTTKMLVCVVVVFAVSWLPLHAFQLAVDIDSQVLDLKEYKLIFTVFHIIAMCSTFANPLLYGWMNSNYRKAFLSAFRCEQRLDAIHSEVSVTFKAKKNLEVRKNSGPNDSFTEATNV

T3: rat hypothalamic Y5 receptor (rat)
T3 chain: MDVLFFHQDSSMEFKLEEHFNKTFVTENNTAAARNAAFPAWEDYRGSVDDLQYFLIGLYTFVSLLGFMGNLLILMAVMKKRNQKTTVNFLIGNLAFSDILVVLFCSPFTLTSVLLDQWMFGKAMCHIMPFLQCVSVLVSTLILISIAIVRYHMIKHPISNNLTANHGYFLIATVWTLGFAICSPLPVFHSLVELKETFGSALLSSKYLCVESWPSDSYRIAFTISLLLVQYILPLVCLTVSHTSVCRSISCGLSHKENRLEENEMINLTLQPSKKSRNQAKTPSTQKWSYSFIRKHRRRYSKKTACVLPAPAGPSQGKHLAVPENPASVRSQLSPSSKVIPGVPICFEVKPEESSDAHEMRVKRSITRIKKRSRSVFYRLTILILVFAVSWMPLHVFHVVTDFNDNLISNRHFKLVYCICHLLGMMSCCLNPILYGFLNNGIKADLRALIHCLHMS

T4: rat Y2 receptor (rat, UniProt Q9ERC0)
T4 sequence: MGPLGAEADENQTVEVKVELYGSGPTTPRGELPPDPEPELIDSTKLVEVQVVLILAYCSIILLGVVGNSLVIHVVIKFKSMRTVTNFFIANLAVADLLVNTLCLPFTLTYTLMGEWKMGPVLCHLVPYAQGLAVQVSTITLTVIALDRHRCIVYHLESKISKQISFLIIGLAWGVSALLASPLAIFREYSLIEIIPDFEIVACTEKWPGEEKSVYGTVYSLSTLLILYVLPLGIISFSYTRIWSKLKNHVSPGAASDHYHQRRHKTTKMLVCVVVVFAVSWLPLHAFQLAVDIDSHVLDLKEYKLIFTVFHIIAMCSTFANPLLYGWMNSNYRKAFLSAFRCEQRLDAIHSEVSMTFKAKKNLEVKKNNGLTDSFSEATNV

B1: rat PP (peptide)
peptide: APLEPMYPGDYATHEQRAQYETQLRRYINTLTRPRY
B2: human PP2-36 (peptide)
peptide: PLEPVYPGDNATPEQMAQYAADLRRYINMLTRPRY
B3: human PP13-36 (peptide)
peptide: TPEQMAQYAADLRRYINMLTRPRY
B4: porcine NPY26-36 (peptide)
peptide: HYINLITRQRY
modifications: ends and bridges not checked
B5: human PP (peptide)
peptide: APLEPVYPGDNATPEQMAQYAADLRRYINMLTRPRY
B6: bovine PP (peptide)
peptide: B5 peptide with V6E, D23E
B7: porcine NPY16-36 (peptide)
peptide: DLARYYSALRHYINLITRQRY
modifications: ends and bridges not checked
B8: human PP31-36 (peptide)
peptide: PLEPVY
B9: porcine NPY22-36 (peptide)
peptide: SALRHYINLITRQRY
modifications: ends and bridges not checked
B10: porcine NPY18-36 (peptide)
peptide: ARYYSALRHYINLITRQRY
modifications: ends and bridges not checked
B11: human PP31-36 free acid (peptide)
peptide: PLEPVY-OH
B12: porcine NPY13-36 (peptide)
peptide: PAEDLARYYSALRHYINLITRQRY
modifications: ends and bridges not checked
B13: FLRF-amide (peptide)
peptide: FLRF-NH2
B14: human PYY13-36 (peptide)
peptide: SPEELNRYYASLRHYLNLVTRQRY
B15: porcine NPY20-36 (peptide)
peptide: YYSALRHYINLITRQRY
modifications: ends and bridges not checked
B16: human NPY1-24 amide (peptide)
peptide: YPSKPDNPGEDAPAEDMARYYSAL-NH2

Biological target: T1, human hippocampal Y5 receptor
Assay: 125I-PYY displacement, COS-7 membranes
Protocol: (§1) Peptides were tested at concentrations ranging from 0.001 nM to 1000 nM unless noted. IC₅₀ values corresponding to 50% displacement were determined by nonlinear regression analysis and converted to Kᵢ values according to the Cheng-Prusoff equation.

Binder	Ki
B1	630 nM
B2	2.1 nM
B3	720 nM

Biological target: T5, human Y4 receptor (human, UniProt P50391)
Assay: 125I-PYY displacement, COS-7 membranes
Protocol: as §1

Binder	Ki
B1	0.16 nM
B3	39 nM

Biological target: T2, human Y2 receptor
Assay: 125I-PYY displacement, COS-7 membranes
Protocol: as §1

Binder	Ki
B1	> 1000 nM
B4	380 nM

Biological target: T6, human Y1 receptor (human, UniProt P25929)
Assay: 125I-PYY displacement, COS-7 membranes
Protocol: as §1

Binder	Ki
B1	450 nM
B4	> 1000 nM

Biological target: T5, human Y4 receptor
Assay: 125I-PYY displacement, COS-7 membranes
Remark: another data set of the same source
Protocol: as §1

Binder	Ki
B1	0.16 nM
B3	39 nM

Biological target: T2, human Y2 receptor
Assay: 125I-PYY displacement, COS-7 membranes
Remark: another data set of the same source
Protocol: as §1

Binder	Ki
B1	> 1000 nM
B4	380 nM

Biological target: T6, human Y1 receptor
Assay: 125I-PYY displacement, COS-7 membranes
Remark: another data set of the same source
Protocol: as §1

Binder	Ki
B1	450 nM
B4	> 1000 nM

Biological target: T3, rat hypothalamic Y5 receptor
Assay: 125I-PYY displacement, COS-7 membranes
Protocol: as §1

Binder	Ki
B1	180 nM
B5	5 nM

Biological target: T1, human hippocampal Y5 receptor
Assay: 125I-PYY3-36 displacement, LM(tk-) membranes
Protocol: (§2) Peptides were tested at concentrations ranging from 0.001 nM to 1000 nM. IC₅₀ values corresponding to 50% displacement were determined by nonlinear regression analysis and converted to Kᵢ values according to the Cheng-Prusoff equation.

Binder	Ki
B1	130 nM
B6	5 nM
B7	180 nM
B8	41000 nM

Biological target: T1, human hippocampal Y5 receptor
Assay: 125I-PYY displacement, COS-7 membranes
Remark: another data set of the same source
Protocol: as §2

Binder	Ki
B9	> 1000 nM
B1	630 nM
B2	2.1 nM
B3	720 nM
B6	1.6 nM
B10	> 470 nM
B7	300 nM
B8	> 10000 nM

Biological target: T3, rat hypothalamic Y5 receptor
Assay: 125I-PYY displacement, COS-7 membranes
Remark: another data set of the same source
Protocol: as §2

Binder	Ki
B9	> 1000 nM
B1	230 nM
B3	290 nM
B5	5 nM
B6	8.4 nM
B10	> 1000 nM
B7	260 nM
B8	> 10000 nM

Biological target: T2, human Y2 receptor
Assay: 125I-PYY displacement, COS-7 membranes; tested only up to 100 nM

Binder	Ki
B3	> 100 nM

Biological target: T6, human Y1 receptor
Assay: as above

Binder	Ki
B3	> 100 nM

Biological target: rat Y4 receptor (rat, UniProt Q63447)
Assay: 125I-PYY displacement, COS-7 membranes
Protocol: (§3) Peptides were tested at concentrations ranging from 0.001 nM to 1000 nM. IC₅₀ values corresponding to 50% displacement were determined by nonlinear regression analysis and converted to Kᵢ values according to the Cheng-Prusoff equation. […] Exception: new peptides (marked with a double asterisk) were tested in one or more independent experiments.

Binder	Ki
B11	> 100 nM
B5	0.04 nM
B7	200 nM
B8	26 nM

Biological target: T4, rat Y2 receptor
Assay: 125I-PYY displacement, COS-7 membranes
Protocol: as §3

Binder	Ki
B9	54 nM
B1	> 1000 nM
B3	> 650 nM
B5	> 1000 nM
B6	> 1000 nM
B7	35 nM
B12	31 nM
B8	> 10000 nM

Biological target: rat Y1 receptor (rat, UniProt P21555)
Assay: 125I-PYY displacement, COS-7 membranes
Protocol: as §3

Binder	Ki
B9	> 1000 nM
B13	45000 nM
B3	> 1000 nM
B6	120 nM
B7	140 nM
B14	130 nM
B4	> 1000 nM
B12	190 nM
B8	> 10000 nM

Biological target: T3, rat hypothalamic Y5 receptor
Assay: 125I-PYY displacement, COS-7 membranes
Remark: another data set of the same source
Protocol: as §3

Binder	Ki
B9	> 1000 nM
B1	230 nM
B13	5500 nM
B11	> 10000 nM
B3	84 nM
B5	5 nM
B6	8.4 nM
B15	> 100 nM
B10	> 1000 nM
B7	260 nM
B16	> 1000 nM
B8	> 1000 nM

Biological target: T1, human hippocampal Y5 receptor
Assay: 125I-PYY displacement, LM(tk-) membranes
Protocol: as §2

Binder	Ki
B5	3 nM
B6	7.9 nM

Biological target: T2, human Y2 receptor
Assay: 125I-PYY displacement, COS-7 membranes; tested only up to 100 nM
Remark: another data set of the same source

Binder	Ki
B3	> 100 nM

Biological target: T6, human Y1 receptor
Assay: as above
Remark: another data set of the same source

Binder	Ki
B3	> 100 nM
